Data published in US20190185537A1 (AstraZeneca / MedImmune, published 2019).
Numbered stars: 1 amine (or outer) side, 2 acyl side, 3 side chain; on linkers, the order of the positions; unused ones are H or OH. Side chains are listed from the residue outwards. Ends that are not written are not given here. * marks the point of attachment. γGlu = O=C(O)[C@H](CCC(=O)[*:2])N[*:1]; Palmitoyl = CCCCCCCCCCCCCCCC(=O)*

Experiments:
Assay in all cases: cell-based or functional assay
[1] = biological target: T1, human glucose-dependent insulinotropic peptide (gastric inhibitory polypeptide) receptor (human) (UniProt P48546)
T1 sequence (looked up): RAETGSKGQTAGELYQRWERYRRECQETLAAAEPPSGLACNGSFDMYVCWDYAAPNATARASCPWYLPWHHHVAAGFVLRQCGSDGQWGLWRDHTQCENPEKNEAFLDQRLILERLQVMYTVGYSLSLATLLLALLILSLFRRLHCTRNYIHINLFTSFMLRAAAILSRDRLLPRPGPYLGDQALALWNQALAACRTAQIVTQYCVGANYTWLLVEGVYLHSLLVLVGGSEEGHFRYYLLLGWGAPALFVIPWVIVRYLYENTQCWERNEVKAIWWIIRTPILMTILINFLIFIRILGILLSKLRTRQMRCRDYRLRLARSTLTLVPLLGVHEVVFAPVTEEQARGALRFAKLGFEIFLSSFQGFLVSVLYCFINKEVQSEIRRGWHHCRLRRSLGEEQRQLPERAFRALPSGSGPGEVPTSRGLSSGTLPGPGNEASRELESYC

[2] = biological target: human glucagon receptor (human, UniProt P47871 26-477)
human glucagon receptor, sequence (P47871 26-477): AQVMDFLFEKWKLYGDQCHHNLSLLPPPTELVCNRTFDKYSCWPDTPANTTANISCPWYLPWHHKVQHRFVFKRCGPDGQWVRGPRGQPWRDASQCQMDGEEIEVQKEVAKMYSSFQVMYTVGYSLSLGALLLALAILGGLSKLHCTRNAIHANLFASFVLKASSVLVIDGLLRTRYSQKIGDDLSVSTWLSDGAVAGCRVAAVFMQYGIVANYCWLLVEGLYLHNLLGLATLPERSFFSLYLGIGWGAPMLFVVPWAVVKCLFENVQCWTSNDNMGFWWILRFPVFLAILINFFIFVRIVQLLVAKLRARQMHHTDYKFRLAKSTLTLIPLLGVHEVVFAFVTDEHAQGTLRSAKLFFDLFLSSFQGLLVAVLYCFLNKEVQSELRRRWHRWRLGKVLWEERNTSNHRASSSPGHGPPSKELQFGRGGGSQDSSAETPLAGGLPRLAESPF

[3] = biological target: human GLP-1 receptor (human, UniProt P43220 24-463)
human GLP-1 receptor, sequence (P43220 24-463): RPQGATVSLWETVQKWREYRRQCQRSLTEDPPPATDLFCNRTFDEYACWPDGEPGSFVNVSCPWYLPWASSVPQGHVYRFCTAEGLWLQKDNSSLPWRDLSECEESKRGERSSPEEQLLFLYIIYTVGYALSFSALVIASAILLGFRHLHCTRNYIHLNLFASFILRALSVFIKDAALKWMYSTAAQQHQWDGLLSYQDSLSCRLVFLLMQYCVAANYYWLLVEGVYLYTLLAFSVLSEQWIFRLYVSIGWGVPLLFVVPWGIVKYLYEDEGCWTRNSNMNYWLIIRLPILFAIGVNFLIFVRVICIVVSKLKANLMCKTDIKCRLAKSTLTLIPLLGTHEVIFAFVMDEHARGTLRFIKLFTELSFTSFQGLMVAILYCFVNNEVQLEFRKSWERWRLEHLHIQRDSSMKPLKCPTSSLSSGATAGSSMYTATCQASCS

Row | Binder | cAMP EC50 (assay 1) [1] | cAMP EC50 (assay 1) [2] | cAMP EC50 (assay 1) [3]
1 | HSQGTFTSDYSKYK([γGlu-Palmitoyl])DSRSAQDFVQWLVAGG-NH2 (N-terminus assumed; SMILES CCCCCCCCCCCCCCCC(=O)N[C@@H](CCC(=O)NCCCC[C@H](NC(=O)[C@H](Cc1ccc(O)cc1)NC(=O)[C@H](CCCCN)NC(=O)[C@H](CO)NC(=O)[C@H](Cc1ccc(O)cc1)NC(=O)[C@H](CC(=O)O)NC(=O)[C@H](CO)NC(=O)[C@@H](NC(=O)[C@H](Cc1ccccc1)NC(=O)[C@@H](NC(=O)CNC(=O)[C@H](CCC(N)=O)NC(=O)[C@H](CO)NC(=O)[C@@H](N)Cc1c[nH]cn1)[C@@H](C)O)[C@@H](C)O)C(=O)N[C@@H](CC(=O)O)C(=O)N[C@@H](CO)C(=O)N[C@@H](CCCNC(=N)N)C(=O)N[C@@H](CO)C(=O)N[C@@H](C)C(=O)N[C@@H](CCC(N)=O)C(=O)N[C@@H](CC(=O)O)C(=O)N[C@@H](Cc1ccccc1)C(=O)N[C@H](C(=O)N[C@@H](CCC(N)=O)C(=O)N[C@@H](Cc1c[nH]c2ccccc12)C(=O)N[C@@H](CC(C)C)C(=O)N[C@H](C(=O)N[C@@H](C)C(=O)NCC(=O)NCC(N)=O)C(C)C)C(C)C)C(=O)O) [g670] | 14.9 nM | 0.008 nM | 0.0203 nM
2 | HSQGTFTSDYSKYLDSK([γGlu-Palmitoyl])RAQDFVQWLVAGG-NH2 (N-terminus assumed; SMILES CCCCCCCCCCCCCCCC(=O)N[C@@H](CCC(=O)NCCCC[C@H](NC(=O)[C@H](CO)NC(=O)[C@H](CC(=O)O)NC(=O)[C@H](CC(C)C)NC(=O)[C@H](Cc1ccc(O)cc1)NC(=O)[C@H](CCCCN)NC(=O)[C@H](CO)NC(=O)[C@H](Cc1ccc(O)cc1)NC(=O)[C@H](CC(=O)O)NC(=O)[C@H](CO)NC(=O)[C@@H](NC(=O)[C@H](Cc1ccccc1)NC(=O)[C@@H](NC(=O)CNC(=O)[C@H](CCC(N)=O)NC(=O)[C@H](CO)NC(=O)[C@@H](N)Cc1c[nH]cn1)[C@@H](C)O)[C@@H](C)O)C(=O)N[C@@H](CCCNC(=N)N)C(=O)N[C@@H](C)C(=O)N[C@@H](CCC(N)=O)C(=O)N[C@@H](CC(=O)O)C(=O)N[C@@H](Cc1ccccc1)C(=O)N[C@H](C(=O)N[C@@H](CCC(N)=O)C(=O)N[C@@H](Cc1c[nH]c2ccccc12)C(=O)N[C@@H](CC(C)C)C(=O)N[C@H](C(=O)N[C@@H](C)C(=O)NCC(=O)NCC(N)=O)C(C)C)C(C)C)C(=O)O) [g335] | 582 nM |  | 0.0733 nM
3 | HSQGTFTSDYSKYLDSK([γGlu-γGlu-Palmitoyl])RAQDFVQWLVAGG-NH2 (N-terminus assumed; SMILES CCCCCCCCCCCCCCCC(=O)N[C@@H](CCC(=O)N[C@@H](CCC(=O)NCCCC[C@H](NC(=O)[C@H](CO)NC(=O)[C@H](CC(=O)O)NC(=O)[C@H](CC(C)C)NC(=O)[C@H](Cc1ccc(O)cc1)NC(=O)[C@H](CCCCN)NC(=O)[C@H](CO)NC(=O)[C@H](Cc1ccc(O)cc1)NC(=O)[C@H](CC(=O)O)NC(=O)[C@H](CO)NC(=O)[C@@H](NC(=O)[C@H](Cc1ccccc1)NC(=O)[C@@H](NC(=O)CNC(=O)[C@H](CCC(N)=O)NC(=O)[C@H](CO)NC(=O)[C@@H](N)Cc1c[nH]cn1)[C@@H](C)O)[C@@H](C)O)C(=O)N[C@@H](CCCNC(=N)N)C(=O)N[C@@H](C)C(=O)N[C@@H](CCC(N)=O)C(=O)N[C@@H](CC(=O)O)C(=O)N[C@@H](Cc1ccccc1)C(=O)N[C@H](C(=O)N[C@@H](CCC(N)=O)C(=O)N[C@@H](Cc1c[nH]c2ccccc12)C(=O)N[C@@H](CC(C)C)C(=O)N[C@H](C(=O)N[C@@H](C)C(=O)NCC(=O)NCC(N)=O)C(C)C)C(C)C)C(=O)O)C(=O)O) [g336] | 19.6 nM | 0.00177 nM | 0.0366 nM
4 | HXQGTFTSDYSKYLDSKRAQDFVQWLVAGG (Aib at 2 (written X); K(gE-palm) at 17; C-terminal amide) [g384] | 17 nM | 0.0429 nM | 0.0272 nM
5 | HSEGTFTSDYSKYLDSK([γGlu-Palmitoyl])RAQDFVQWLVAGG-NH2 (N-terminus assumed; SMILES CCCCCCCCCCCCCCCC(=O)N[C@@H](CCC(=O)NCCCC[C@H](NC(=O)[C@H](CO)NC(=O)[C@H](CC(=O)O)NC(=O)[C@H](CC(C)C)NC(=O)[C@H](Cc1ccc(O)cc1)NC(=O)[C@H](CCCCN)NC(=O)[C@H](CO)NC(=O)[C@H](Cc1ccc(O)cc1)NC(=O)[C@H](CC(=O)O)NC(=O)[C@H](CO)NC(=O)[C@@H](NC(=O)[C@H](Cc1ccccc1)NC(=O)[C@@H](NC(=O)CNC(=O)[C@H](CCC(=O)O)NC(=O)[C@H](CO)NC(=O)[C@@H](N)Cc1c[nH]cn1)[C@@H](C)O)[C@@H](C)O)C(=O)N[C@@H](CCCNC(=N)N)C(=O)N[C@@H](C)C(=O)N[C@@H](CCC(N)=O)C(=O)N[C@@H](CC(=O)O)C(=O)N[C@@H](Cc1ccccc1)C(=O)N[C@H](C(=O)N[C@@H](CCC(N)=O)C(=O)N[C@@H](Cc1c[nH]c2ccccc12)C(=O)N[C@@H](CC(C)C)C(=O)N[C@H](C(=O)N[C@@H](C)C(=O)NCC(=O)NCC(N)=O)C(C)C)C(C)C)C(=O)O) [g381] | 545 nM | 1.93 nM | 0.0908 nM
6 | HGQGTFTSDYSKYLDSK([γGlu-Palmitoyl])RAEDFVQWLVAGG-NH2 (N-terminus assumed; SMILES CCCCCCCCCCCCCCCC(=O)N[C@@H](CCC(=O)NCCCC[C@H](NC(=O)[C@H](CO)NC(=O)[C@H](CC(=O)O)NC(=O)[C@H](CC(C)C)NC(=O)[C@H](Cc1ccc(O)cc1)NC(=O)[C@H](CCCCN)NC(=O)[C@H](CO)NC(=O)[C@H](Cc1ccc(O)cc1)NC(=O)[C@H](CC(=O)O)NC(=O)[C@H](CO)NC(=O)[C@@H](NC(=O)[C@H](Cc1ccccc1)NC(=O)[C@@H](NC(=O)CNC(=O)[C@H](CCC(N)=O)NC(=O)CNC(=O)[C@@H](N)Cc1c[nH]cn1)[C@@H](C)O)[C@@H](C)O)C(=O)N[C@@H](CCCNC(=N)N)C(=O)N[C@@H](C)C(=O)N[C@@H](CCC(=O)O)C(=O)N[C@@H](CC(=O)O)C(=O)N[C@@H](Cc1ccccc1)C(=O)N[C@H](C(=O)N[C@@H](CCC(N)=O)C(=O)N[C@@H](Cc1c[nH]c2ccccc12)C(=O)N[C@@H](CC(C)C)C(=O)N[C@H](C(=O)N[C@@H](C)C(=O)NCC(=O)NCC(N)=O)C(C)C)C(C)C)C(=O)O) [g678] | 123 nM | 4.52 nM | 0.106 nM
7 | HGQGTFTSDYSKYLDSK([γGlu-Palmitoyl])RAQDFVEWLVAGG-NH2 (N-terminus assumed; SMILES CCCCCCCCCCCCCCCC(=O)N[C@@H](CCC(=O)NCCCC[C@H](NC(=O)[C@H](CO)NC(=O)[C@H](CC(=O)O)NC(=O)[C@H](CC(C)C)NC(=O)[C@H](Cc1ccc(O)cc1)NC(=O)[C@H](CCCCN)NC(=O)[C@H](CO)NC(=O)[C@H](Cc1ccc(O)cc1)NC(=O)[C@H](CC(=O)O)NC(=O)[C@H](CO)NC(=O)[C@@H](NC(=O)[C@H](Cc1ccccc1)NC(=O)[C@@H](NC(=O)CNC(=O)[C@H](CCC(N)=O)NC(=O)CNC(=O)[C@@H](N)Cc1c[nH]cn1)[C@@H](C)O)[C@@H](C)O)C(=O)N[C@@H](CCCNC(=N)N)C(=O)N[C@@H](C)C(=O)N[C@@H](CCC(N)=O)C(=O)N[C@@H](CC(=O)O)C(=O)N[C@@H](Cc1ccccc1)C(=O)N[C@H](C(=O)N[C@@H](CCC(=O)O)C(=O)N[C@@H](Cc1c[nH]c2ccccc12)C(=O)N[C@@H](CC(C)C)C(=O)N[C@H](C(=O)N[C@@H](C)C(=O)NCC(=O)NCC(N)=O)C(C)C)C(C)C)C(=O)O) [g679] | 117 nM | 0.189 nM | 0.135 nM
8 | HSQGTFTSDYSK([γGlu-Palmitoyl])YLDSERAQDFVQWLVAGG-NH2 (N-terminus assumed; SMILES CCCCCCCCCCCCCCCC(=O)N[C@@H](CCC(=O)NCCCC[C@H](NC(=O)[C@H](CO)NC(=O)[C@H](Cc1ccc(O)cc1)NC(=O)[C@H](CC(=O)O)NC(=O)[C@H](CO)NC(=O)[C@@H](NC(=O)[C@H](Cc1ccccc1)NC(=O)[C@@H](NC(=O)CNC(=O)[C@H](CCC(N)=O)NC(=O)[C@H](CO)NC(=O)[C@@H](N)Cc1c[nH]cn1)[C@@H](C)O)[C@@H](C)O)C(=O)N[C@@H](Cc1ccc(O)cc1)C(=O)N[C@@H](CC(C)C)C(=O)N[C@@H](CC(=O)O)C(=O)N[C@@H](CO)C(=O)N[C@@H](CCC(=O)O)C(=O)N[C@@H](CCCNC(=N)N)C(=O)N[C@@H](C)C(=O)N[C@@H](CCC(N)=O)C(=O)N[C@@H](CC(=O)O)C(=O)N[C@@H](Cc1ccccc1)C(=O)N[C@H](C(=O)N[C@@H](CCC(N)=O)C(=O)N[C@@H](Cc1c[nH]c2ccccc12)C(=O)N[C@@H](CC(C)C)C(=O)N[C@H](C(=O)N[C@@H](C)C(=O)NCC(=O)NCC(N)=O)C(C)C)C(C)C)C(=O)O) [g702] |  | 1.49 nM | 3.35 nM
